{
  "source": "the Human Domainome abundance scans (Beltran et al. 2025)",
  "parents": {"B1": {"name": "Receptor-interacting serine/threonine-protein kinase 2, residues 438 to 518; numbered along this chain, O43353 (parent)", "chain": "QWIQSKREDIVNQMTEACLNQSLDALLSRDLIMKEDYELVSTKPTRTSKVRQLLDTTDIQGEEFAKVIVQKLKDNKQMGLQ"}},
  "note": "± gives the uncertainty stated by the source.",
  "data": [
    {"variants_of": "B1", "assay": "abundance fitness (aPCA) (normalised: wild type 0, dead -1); higher = more abundant; growth selection in yeast, the domain comes from the species named", "details": "Homo sapiens", "values": [
      {"variant": "QWIQSKREDIVNQMTEACLNQSLDALLSRDLIMKEDYELVSTKPTRTSKARQLLDTTDIQGEEFAKVIVQKLKDNKQMGLQ", "note": "[V50A]", "abundance fitness": "-0.842 ± 0.089"},
      {"variant": "QWIQSKREDIVNQMTEACLNQSLDALLSRDLIMKEDYELVSTKPTRTSKDRQLLDTTDIQGEEFAKVIVQKLKDNKQMGLQ", "note": "[V50D]", "abundance fitness": "-0.493 ± 0.22"},
      {"variant": "QWIQSKREDIVNQMTEACLNQSLDALLSRDLIMKEDYELVSTKPTRTFKVRQLLDTTDIQGEEFAKVIVQKLKDNKQMGLQ", "note": "[S48F]", "abundance fitness": "-0.527 ± 0.22"},
      {"variant": "QWIQSKREDIVNQMTEACLNQSLDALLSRDLIMKEDYELVSTKPTRTQKVRQLLDTTDIQGEEFAKVIVQKLKDNKQMGLQ", "note": "[S48Q]", "abundance fitness": "0.123 ± 0.099"},
      {"variant": "QWIQSKREDIVNQMTEACLNQSLDALLSRDLIMKEDYELVSTKPTRTGKVRQLLDTTDIQGEEFAKVIVQKLKDNKQMGLQ", "note": "[S48G]", "abundance fitness": "-0.11 ± 0.055"},
      {"variant": "QWIQSKREDIVNQMTEACLNQSLDALLSRDLIMKEDYELVSTKPTRTRKVRQLLDTTDIQGEEFAKVIVQKLKDNKQMGLQ", "note": "[S48R]", "abundance fitness": "-0.466 ± 0.065"},
      {"variant": "QWIQSKREDIVNQMTEACLNQSLDALLSRDLIMKEDYELVSTKPTRTVKVRQLLDTTDIQGEEFAKVIVQKLKDNKQMGLQ", "note": "[S48V]", "abundance fitness": "-0.534 ± 0.11"},
      {"variant": "QWIQSKREDIVNQMTEACLNQSLDALLSRDLIMKEDYELVSTKPTRTHKVRQLLDTTDIQGEEFAKVIVQKLKDNKQMGLQ", "note": "[S48H]", "abundance fitness": "-0.47 ± 0.2"},
      {"variant": "QWIQSKREDIVNQMTEACLNQSLDALLSRDLIMKEDYELVSTKPTRTTKVRQLLDTTDIQGEEFAKVIVQKLKDNKQMGLQ", "note": "[S48T]", "abundance fitness": "-0.224 ± 0.1"},
      {"variant": "QWIQSKREDIVNQMTEACLNQSLDALLSRDLIMKEDYELVSTKPTRTIKVRQLLDTTDIQGEEFAKVIVQKLKDNKQMGLQ", "note": "[S48I]", "abundance fitness": "-0.923 ± 0.23"},
      {"variant": "QWIQSKREDIVNQMTEACLNQSLDALLSRDLIMKEDYELVSTKPTRTMKVRQLLDTTDIQGEEFAKVIVQKLKDNKQMGLQ", "note": "[S48M]", "abundance fitness": "-0.142 ± 0.16"},
      {"variant": "QWIQSKREDIVNQMTEACLNQSLDALLSRDLIMKEDYELVSTKPTRTYKVRQLLDTTDIQGEEFAKVIVQKLKDNKQMGLQ", "note": "[S48Y]", "abundance fitness": "-0.644 ± 0.21"},
      {"variant": "QWIQSKREDIVNQMTEACLNQSLDALLSRDLIMKEDYELVSTKPTRTCKVRQLLDTTDIQGEEFAKVIVQKLKDNKQMGLQ", "note": "[S48C]", "abundance fitness": "-0.293 ± 0.1"},
      {"variant": "QWIQSKREDIVNQMTEACLNQSLDALLSRDLIMKEDYELVSTKPTRTEKVRQLLDTTDIQGEEFAKVIVQKLKDNKQMGLQ", "note": "[S48E]", "abundance fitness": "0.542 ± 0.19"},
      {"variant": "QWIQSKREDIVNQMTEACLNQSLDALLSRDLIMKEDYELVSTKPTRTAKVRQLLDTTDIQGEEFAKVIVQKLKDNKQMGLQ", "note": "[S48A]", "abundance fitness": "0.072 ± 0.06"},
      {"variant": "QWIQSKREDIVNQMTEACLNQSLDALLSRDLIMKEDYELVSTKPTRTNKVRQLLDTTDIQGEEFAKVIVQKLKDNKQMGLQ", "note": "[S48N]", "abundance fitness": "-0.892 ± 0.28"},
      {"variant": "QWIQSKREDIVNQMTEACLNQSLDALLSRDLIMKEDYELVSTKPTRTDKVRQLLDTTDIQGEEFAKVIVQKLKDNKQMGLQ", "note": "[S48D]", "abundance fitness": "0.065 ± 0.096"},
      {"variant": "QWIQSKREDIVNQMTEACLNQSLDALLSRDLIMKEDYELVSTKPTRTWKVRQLLDTTDIQGEEFAKVIVQKLKDNKQMGLQ", "note": "[S48W]", "abundance fitness": "-0.819 ± 0.13"},
      {"variant": "QWIQSKREDIVNQMTEACLNQSLDALLSRDLIMKEDYELVSTKPTRTLKVRQLLDTTDIQGEEFAKVIVQKLKDNKQMGLQ", "note": "[S48L]", "abundance fitness": "-0.04 ± 0.075"},
      {"variant": "QWIQSKREDIVNQMTEACLNQSLDALLSRDLIMKEDYELVSTKPTRTPKVRQLLDTTDIQGEEFAKVIVQKLKDNKQMGLQ", "note": "[S48P]", "abundance fitness": "-0.651 ± 0.089"},
      {"variant": "QWIQSKREDIVNQMTEACLNQSLDALLSRDLIMKEDYELVSTKPTNTSKVRQLLDTTDIQGEEFAKVIVQKLKDNKQMGLQ", "note": "[R46N]", "abundance fitness": "-0.288 ± 0.22"},
      {"variant": "QWIQSKREDIVNQMTEACLNQSLDALLSRDLIMKEDYELVSTKPTGTSKVRQLLDTTDIQGEEFAKVIVQKLKDNKQMGLQ", "note": "[R46G]", "abundance fitness": "-0.596 ± 0.054"},
      {"variant": "QWIQSKREDIVNQMTEACLNQSLDALLSRDLIMKEDYELVSTKPTETSKVRQLLDTTDIQGEEFAKVIVQKLKDNKQMGLQ", "note": "[R46E]", "abundance fitness": "-0.214 ± 0.16"},
      {"variant": "QWIQSKREDIVNQMTEACLNQSLDALLSRDLIMKEDYELVSTKPTCTSKVRQLLDTTDIQGEEFAKVIVQKLKDNKQMGLQ", "note": "[R46C]", "abundance fitness": "-0.285 ± 0.079"},
      {"variant": "QWIQSKREDIVNQMTEACLNQSLDALLSRDLIMKEDYELVSTKPTITSKVRQLLDTTDIQGEEFAKVIVQKLKDNKQMGLQ", "note": "[R46I]", "abundance fitness": "0.007 ± 0.15"},
      {"variant": "QWIQSKREDIVNQMTEACLNQSLDALLSRDLIMKEDYELVSTKPTATSKVRQLLDTTDIQGEEFAKVIVQKLKDNKQMGLQ", "note": "[R46A]", "abundance fitness": "-0.674 ± 0.11"},
      {"variant": "QWIQSKREDIVNQMTEACLNQSLDALLSRDLIMKEDYELVSTKPTFTSKVRQLLDTTDIQGEEFAKVIVQKLKDNKQMGLQ", "note": "[R46F]", "abundance fitness": "-0.447 ± 0.14"},
      {"variant": "QWIQSKREDIVNQMTEACLNQSLDALLSRDLIMKEDYELVSTKPTVTSKVRQLLDTTDIQGEEFAKVIVQKLKDNKQMGLQ", "note": "[R46V]", "abundance fitness": "-0.045 ± 0.034"},
      {"variant": "QWIQSKREDIVNQMTEACLNQSLDALLSRDLIMKEDYELVSTKPTHTSKVRQLLDTTDIQGEEFAKVIVQKLKDNKQMGLQ", "note": "[R46H]", "abundance fitness": "-0.012 ± 0.11"},
      {"variant": "QWIQSKREDIVNQMTEACLNQSLDALLSRDLIMKEDYELVSTKPTDTSKVRQLLDTTDIQGEEFAKVIVQKLKDNKQMGLQ", "note": "[R46D]", "abundance fitness": "-0.221 ± 0.088"},
      {"variant": "QWIQSKREDIVNQMTEACLNQSLDALLSRDLIMKEDYELVSTKPTLTSKVRQLLDTTDIQGEEFAKVIVQKLKDNKQMGLQ", "note": "[R46L]", "abundance fitness": "0.143 ± 0.037"},
      {"variant": "QWIQSKREDIVNQMTEACLNQSLDALLSRDLIMKEDYELVSTKPTMTSKVRQLLDTTDIQGEEFAKVIVQKLKDNKQMGLQ", "note": "[R46M]", "abundance fitness": "-0.411 ± 0.12"},
      {"variant": "QWIQSKREDIVNQMTEACLNQSLDALLSRDLIMKEDYELVSTKPTWTSKVRQLLDTTDIQGEEFAKVIVQKLKDNKQMGLQ", "note": "[R46W]", "abundance fitness": "-0.796 ± 0.072"},
      {"variant": "QWIQSKREDIVNQMTEACLNQSLDALLSRDLIMKEDYELVSTKPTTTSKVRQLLDTTDIQGEEFAKVIVQKLKDNKQMGLQ", "note": "[R46T]", "abundance fitness": "0.02 ± 0.091"}
    ]}
  ]
}
